Test results reported in US5318897.

T1: Boc-L-R-R-MCA
T1 sequence (peptide, N-terminal Boc; C-terminal methylcoumarinamide (MCA)): LRR

T2: Z-R-R-MCA
T2 sequence (peptide, N-terminal Z; C-terminal methylcoumarinamide (MCA)): RR

T3: vasoactive intestinal peptide (VIP)
T3 sequence (peptide, C-terminal amide (--CO--NH2)): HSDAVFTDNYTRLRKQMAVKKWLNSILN


Legend:
Boc-L-R-R-MCA = biological target: T1, Boc-L-R-R-MCA
Z-R-R-MCA = biological target: T2, Z-R-R-MCA
[1] = biological target: T3, vasoactive intestinal peptide (VIP)
[2] = biological target: T3, vasoactive intestinal peptide (VIP); test: binding studies under conditions that did not permit VIP hydrolysis (high ionic strength)

fluorescence of the leaving group methylcoumarinamide (Boc-L-R-R-MCA)	fluorescence of the leaving group methylcoumarinamide (P-F-R-MCA)	fluorescence of the leaving group methylcoumarinamide (Z-R-R-MCA)	Km [1]	kcat [1]	Kd [2]	Molecule
263 units	194 units	179 units				bovine pancreatic trypsin (from UniProt P00760) (enzyme)
< 1 unit		< 1 unit	2 nM	1.33e-06 s⁻¹	3.4 nM	monoclonal antibody c23.5 (IgG2a, kappa) (antibody, V domains shown) VH: EVQLQESGGGLVKPGGSLKLSCAASGFTFSIYGMSWFRQTPEKRLEWVATISGGDTYTYYPDSVKGRFTISRDNAKNNLFLQMSSLRSEDTALYFCGRGIAYWGQGTLVTVSA VL: DIVLTQSPASQSASLGESVTITCLASQTIGTWLPWYQQKLGKSPQLLIYAATSLADGVPSRFSGSGSATKFSFKISSLQAEDFVSYNCQHLYSTPLTFGGGTKL
